This is an account of results in patent US20100029507.

For one data set, the target named is bovine serum albumin (UniProt P02769).
Data set [1] has as its target E. coli malic enzyme-kemptide fusion protein (UniProt P26616).

Chain of E. coli malic enzyme-kemptide fusion protein (P26616 whole entry, looked up, the tested form may be a part): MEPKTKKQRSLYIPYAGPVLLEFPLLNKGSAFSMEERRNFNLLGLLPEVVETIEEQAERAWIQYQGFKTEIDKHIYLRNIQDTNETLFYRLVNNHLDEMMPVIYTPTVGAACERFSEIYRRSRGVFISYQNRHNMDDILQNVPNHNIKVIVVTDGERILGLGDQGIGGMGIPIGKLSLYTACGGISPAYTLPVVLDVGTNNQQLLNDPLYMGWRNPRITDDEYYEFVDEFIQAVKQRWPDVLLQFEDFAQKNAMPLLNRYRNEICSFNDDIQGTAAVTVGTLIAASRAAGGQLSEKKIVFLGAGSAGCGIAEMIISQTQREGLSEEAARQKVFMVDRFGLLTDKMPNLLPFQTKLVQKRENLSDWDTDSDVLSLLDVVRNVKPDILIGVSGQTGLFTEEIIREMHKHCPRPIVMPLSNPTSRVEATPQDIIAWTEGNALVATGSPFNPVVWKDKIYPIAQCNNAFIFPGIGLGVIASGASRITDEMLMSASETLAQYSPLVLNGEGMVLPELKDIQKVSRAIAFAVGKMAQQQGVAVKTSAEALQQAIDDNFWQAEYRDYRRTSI
Chain of bovine serum albumin (P02769 25-607): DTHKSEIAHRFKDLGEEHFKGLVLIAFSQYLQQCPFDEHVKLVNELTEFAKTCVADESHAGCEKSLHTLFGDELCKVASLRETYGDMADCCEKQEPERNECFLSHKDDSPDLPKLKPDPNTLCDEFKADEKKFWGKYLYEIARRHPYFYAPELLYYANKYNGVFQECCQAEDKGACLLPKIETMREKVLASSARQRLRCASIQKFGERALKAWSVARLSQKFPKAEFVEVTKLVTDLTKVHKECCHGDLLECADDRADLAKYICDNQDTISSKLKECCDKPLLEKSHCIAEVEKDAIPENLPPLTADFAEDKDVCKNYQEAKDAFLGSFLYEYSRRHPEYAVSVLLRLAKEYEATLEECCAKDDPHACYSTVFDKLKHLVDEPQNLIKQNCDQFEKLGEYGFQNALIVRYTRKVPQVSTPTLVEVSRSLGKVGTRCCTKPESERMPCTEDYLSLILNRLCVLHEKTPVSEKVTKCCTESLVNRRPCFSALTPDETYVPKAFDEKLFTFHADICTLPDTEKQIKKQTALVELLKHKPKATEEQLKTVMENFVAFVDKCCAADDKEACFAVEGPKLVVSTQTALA

Regarding cAMP-dependent protein kinase, the “phosphorylation with [gamma-32P]ATP on the biochip, X-ray film” value with bovine serum albumin is given as “no signal was observed on No. 1 BSA spot selected as a negative control”; with kemptide, “spot signals were clearly confirmed on the malic enzyme-kemptide fusion protein or kemptide spot”; in data set [1], “spot signals were clearly confirmed on the malic enzyme-kemptide fusion protein or kemptide spot”. Further, the “phosphorylation with [gamma-32P]ATP on the biochip after different blocking solutions or none” value in the data set with kemptide was “clear spots were observed not only when 1% BSA was treated but also when 1% glycine and 10% glycerol were treated”; in data set [1] it was “clear spots were observed not only when 1% BSA was treated but also when 1% glycine and 10% glycerol were treated”. For the same substance, the “phosphorylation with [gamma-32P]ATP on the biochip, X-ray film against image plate (IP)” value in the data set with kemptide is recorded as “signals were clearly detected on IP film even with short sensitization time”.
